Experimental data reported in patent publication CN115043942A.

Biological target: 人ROR1 ECD蛋白 (胞外结构域aa30-406) (human) (UniProt Q01973)
Test: BLI (Octet ForteBio), antibody on AHC probe, human ROR1 ECD in solution, 1:1 model; mean of two determinations

Chain of UniProt Q01973 (Q01973 30-406): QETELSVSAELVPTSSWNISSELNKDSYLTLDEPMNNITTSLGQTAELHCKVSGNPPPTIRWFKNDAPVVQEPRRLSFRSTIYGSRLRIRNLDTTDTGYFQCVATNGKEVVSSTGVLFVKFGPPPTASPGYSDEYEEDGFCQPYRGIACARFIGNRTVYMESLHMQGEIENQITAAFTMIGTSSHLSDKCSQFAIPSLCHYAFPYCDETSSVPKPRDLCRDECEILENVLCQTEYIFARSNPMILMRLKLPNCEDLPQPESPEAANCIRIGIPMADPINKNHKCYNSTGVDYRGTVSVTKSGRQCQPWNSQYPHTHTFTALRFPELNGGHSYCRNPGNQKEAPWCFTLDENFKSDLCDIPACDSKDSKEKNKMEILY

B1: 抗人ROR1抗体UC961 (带有人IgG1) (antibody, from another filing, V domains shown)
VH: QVQLQESGPGLVKPSQTLSLTCTVSGYAFTAYNIHWVRQAPGQGLEWMGSFDPYDGGSSYNQKFKDRLTISKDTSKNQVVLTMTNMDPVDTATYYCARGWYYFDYWGHGTLVTVSS
VL: DIVMTQTPLSLPVTPGEPASISCRASKSISKYLAWYQQKPGQAPRLLIYSGSTLQSGIPPRFSGSGYGTDFTLTINNIESEDAAYYFCQQHDESPYTFGEGTKVEIK
Work on B1 yielded a Kd of 15.8 nM, a koff of 0.0137 s⁻¹ and a kon of 981000 M⁻¹ s⁻¹.
